In article PMC3855764, “Oct4/Sox2 Binding Sites Contribute to Maintaining Hypomethylation of the Maternal Igf2/H19 Imprinting Control Region”:

Columns and labels:
[1] = target: T1, Oct4 (recombinant);Sox2 (recombinant) (mouse?;mouse?, UniProt P20263;P48432 1-352;1-319, |); test: EMSA; several complexes, minor one likely full occupancy; 10 mM Tris pH 8.0, 2 mM MgCl (so in the source), 100 mM KCl, 1.25 mM DTT, 5% glycerol, 0.0625% BSA, 19 ug/ml dGdC, 25 fmol probe in 16 ul, 10 min room temperature; 4% PAGE 0.25X TBE; details: protein: recombinant;recombinant; tags: ;; copies: 1;1
T1 sequence (P20263 whole entry, chain 1 of 2): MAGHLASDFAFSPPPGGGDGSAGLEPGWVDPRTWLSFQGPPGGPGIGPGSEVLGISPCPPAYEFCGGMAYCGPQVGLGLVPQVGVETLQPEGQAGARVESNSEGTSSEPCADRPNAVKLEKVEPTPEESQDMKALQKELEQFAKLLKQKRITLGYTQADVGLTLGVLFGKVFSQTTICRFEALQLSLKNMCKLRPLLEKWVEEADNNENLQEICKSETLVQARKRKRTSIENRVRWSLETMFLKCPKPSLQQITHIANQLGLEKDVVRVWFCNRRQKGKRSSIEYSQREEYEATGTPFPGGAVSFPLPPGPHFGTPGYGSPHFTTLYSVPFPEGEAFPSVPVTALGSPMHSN
T1 sequence (P48432 whole entry, chain 2 of 2): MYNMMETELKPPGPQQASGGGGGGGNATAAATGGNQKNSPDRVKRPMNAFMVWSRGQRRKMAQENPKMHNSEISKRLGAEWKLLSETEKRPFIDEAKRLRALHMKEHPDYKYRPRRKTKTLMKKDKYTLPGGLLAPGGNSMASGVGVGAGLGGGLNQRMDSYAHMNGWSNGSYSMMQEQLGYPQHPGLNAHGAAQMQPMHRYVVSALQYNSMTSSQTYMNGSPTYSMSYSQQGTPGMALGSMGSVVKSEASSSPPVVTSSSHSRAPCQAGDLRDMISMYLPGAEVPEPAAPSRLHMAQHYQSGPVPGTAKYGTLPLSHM

[2] = target: T1, Oct4 (recombinant);Sox2 (recombinant); test: EMSA; cooperative ternary complex; printed as at least 50 fold; 10 mM Tris pH 8.0, 2 mM MgCl (so in the source), 100 mM KCl, 1.25 mM DTT, 5% glycerol, 0.0625% BSA, 19 ug/ml dGdC, 25 fmol probe in 16 ul, 10 min room temperature; 4% PAGE 0.25X TBE; details: protein: recombinant;recombinant; tags: ;; copies: 1;1
[3] = target: T1, Oct4 (recombinant);Sox2 (recombinant); test: EMSA; all CpGs methylated; complex not inhibited; 10 mM Tris pH 8.0, 2 mM MgCl (so in the source), 100 mM KCl, 1.25 mM DTT, 5% glycerol, 0.0625% BSA, 19 ug/ml dGdC, 25 fmol probe in 16 ul, 10 min room temperature; 4% PAGE 0.25X TBE; details: protein: recombinant;recombinant; tags: ;; copies: 1;1
[4] = target: T1, Oct4 (recombinant);Sox2 (recombinant); test: EMSA; Oct4-Sox2-Oct4 complex (two Oct4, one Sox2); 10 mM Tris pH 8.0, 2 mM MgCl (so in the source), 100 mM KCl, 1.25 mM DTT, 5% glycerol, 0.0625% BSA, 19 ug/ml dGdC, 25 fmol probe in 16 ul, 10 min room temperature; 4% PAGE 0.25X TBE; details: protein: recombinant;recombinant; tags: ;; chain copies: 2;1
[5] = target: T1, Oct4 (recombinant);Sox2 (recombinant); test: EMSA; cooperative ternary complex; versus independent binding; 10 mM Tris pH 8.0, 2 mM MgCl (so in the source), 100 mM KCl, 1.25 mM DTT, 5% glycerol, 0.0625% BSA, 19 ug/ml dGdC, 25 fmol probe in 16 ul, 10 min room temperature; 4% PAGE 0.25X TBE; details: protein: recombinant;recombinant; tags: ;; copies: 1;1

B1: mouse ICR Sox-OctA+B (both motifs) (dsDNA)
DNA 1: TTTCGTATTCTAATTGGGGCGTTCAGATGCTAATGATCTC
DNA 2: GAGATCATTAGCATCTGAACGCCCCAATTAGAATACGAAA
B1: binds [1].

B2: ICR Sox-OctB (dsDNA)
DNA 1: TTGGGGCGTTCAGATGCTAATGATCTCCGGCT
DNA 2: AGCCGGAGATCATTAGCATCTGAACGCCCCAA
In the case of B2, the binding signal [2] is reported as > 50 fold ternary complex over that expected from independent binding.

B3: B* (methylated Sox-OctB) (dsDNA)
DNA 1: B2 DNA 1
DNA 2: B2 DNA 2
modifications: CpG methylated at all CpGs
B3: binds [3].

B4: human ICR A2 OctA/Sox-OctB, upstream Sox site mutant (dsDNA)
DNA 1: CGCGGAGATGCTAATTTAGGAGCTTGAGATGCTAAAGAGCTG
DNA 2: CAGCTCTTTAGCATCTCAAGCTCCTAAATTAGCATCTCCGCG
B4: binds [4].

B5: ICR Sox-OctA (dsDNA)
DNA 1: CTGGTGATTTGCGCTTTCGTATTCTAATTGGGGAC
DNA 2: GTCCCCAATTAGAATACGAAAGCGCAAATCACCAG
B5: binds [5].

B6: A* (methylated Sox-OctA) (dsDNA)
DNA 1: B5 DNA 1
DNA 2: B5 DNA 2
modifications: CpG methylated at all CpGs
B6: binds [3].
